Bridge positions count the residues as written; N and C are the ends. Square brackets hold non-standard residues; d marks the D form. Peptide text beside a SMILES is read from it. * marks the point of attachment. X1 = O=C(O)CN1CCN(CC(=O)O)CCN([C@H](CCC(=O)*)C(=O)O)CC1; dPhe(4-NHCONH2) = NC(=O)Nc1ccc(C[C@@H](N)C(=O)O)cc1; Dihydroorotyl(S) = O=C1C[C@@H](C(=O)*)NC(=O)N1; Phe(4-Cl) = N[C@@H](Cc1ccc(Cl)cc1)C(=O)O; Phe(4-NH2) = Nc1ccc(C[C@H](N)C(=O)O)cc1
Legend:
human sst2 receptors = biological target: T1, human sst2 receptors (Homo sapiens, UniProt P30874); assay: Saturation binding on HEK-hsst2 cells; details: 2 hours at +4 °C
T1 construct: expressed in transfected cells; host or cells: HEK-293 (HEK-hsst2), a gift from Prof; Schulz, University of Jena
Protocol: The saturation binding experiments were performed with radioligand (^64/natCu-NODAGA-JR11 and ^64/natCu-DOTA-TATE) concentrations ranging from 0.5–75 nM and 0.5–90 nM, respectively, for 2 hours at +4 °C as described previously [24]. The Kd and Bmax values were calculated using GraphPad.

[1] = Biodistribution in HEK-hsst2 tumor-bearing mice; details: female, Balb/c nude, mouse, in vivo, iv, total radioactivity

T1 sequence (P30874 whole entry): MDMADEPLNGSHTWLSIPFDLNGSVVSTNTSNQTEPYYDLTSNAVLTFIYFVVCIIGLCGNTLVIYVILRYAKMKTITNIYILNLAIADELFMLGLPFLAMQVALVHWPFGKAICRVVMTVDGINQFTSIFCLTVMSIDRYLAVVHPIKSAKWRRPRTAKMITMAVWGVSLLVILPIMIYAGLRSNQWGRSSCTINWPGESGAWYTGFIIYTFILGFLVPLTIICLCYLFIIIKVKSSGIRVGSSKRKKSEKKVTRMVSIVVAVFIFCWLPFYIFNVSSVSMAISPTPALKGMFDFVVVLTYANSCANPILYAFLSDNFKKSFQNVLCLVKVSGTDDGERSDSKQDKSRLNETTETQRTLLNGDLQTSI

C[C@@H](O)[C@@H]1NC(=O)[C@H](CCCCN)NC(=O)[C@@H](Cc2ccc(NC(N)=O)cc2)NC(=O)[C@H](Cc2ccc(NC(=O)[C@@H]3CC(=O)NC(=O)N3)cc2)NC(=O)[C@H](NC(=O)[C@H](Cc2ccc(Cl)cc2)NC(=O)CC[C@H](C(=O)O)N2CCN(CC(=O)O)CCN(CC(=O)O)CC2)CSSC[C@@H](C(=O)N[C@H](Cc2ccc(O)cc2)C(N)=O)NC1=O [^64Cu-NODAGA-JR11, metal not drawn] (X1-[Phe(4-Cl)][dC][Phe(4-NH2)](Dihydroorotyl(S))[dPhe(4-NHCONH2)]KTC[dY]-NH2; disulfide 2-7)
Kd (human sst2 receptors): 5.7 ± 0.95 nM | tissue uptake at 1 h ([1]; 10 pmol, Adrenal uptake): 4.8 ± 0.8 %ID/g | tissue uptake at 4 h ([1]; 10 pmol, Adrenal uptake): 3.5 ± 0.9 %ID/g | tissue uptake at 24 h ([1]; 10 pmol, Adrenal uptake): 1.5 ± 0.6 %ID/g | tissue uptake at 1 h ([1]; 10 pmol, Blood uptake): 0.6 ± 0.2 %ID/g | tissue uptake at 4 h ([1]; 10 pmol, Blood uptake): 0.1 %ID/g | tissue uptake at 24 h ([1]; 10 pmol, Blood uptake): 0.1 %ID/g | tissue uptake at 1 h ([1]; 10 pmol, Bone uptake): 0.7 ± 0.2 %ID/g | tissue uptake at 4 h ([1]; 10 pmol, Bone uptake): 0.8 ± 0.2 %ID/g | tissue uptake at 24 h ([1]; 10 pmol, Bone uptake): 0.4 ± 0.2 %ID/g | tissue uptake at 1 h ([1]; 10 pmol, Heart uptake): 0.5 ± 0.1 %ID/g | tissue uptake at 4 h ([1]; 10 pmol, Heart uptake): 0.3 ± 0.1 %ID/g | tissue uptake at 24 h ([1]; 10 pmol, Heart uptake): 0.2 ± 0.1 %ID/g | tissue uptake at 1 h ([1]; 10 pmol, Intestine uptake): 0.9 ± 0.4 %ID/g | tissue uptake at 4 h ([1]; 10 pmol, Intestine uptake): 0.7 ± 0.1 %ID/g | tissue uptake at 24 h ([1]; 10 pmol, Intestine uptake): 0.4 %ID/g | tissue uptake at 1 h ([1]; 10 pmol, Kidney uptake): 10.3 ± 0.7 %ID/g | tissue uptake at 4 h ([1]; 10 pmol, Kidney uptake): 6.9 ± 0.9 %ID/g | tissue uptake at 24 h ([1]; 10 pmol, Kidney uptake): 2.2 ± 0.6 %ID/g | tissue uptake at 1 h ([1]; 10 pmol, Liver uptake): 1.7 ± 0.2 %ID/g | tissue uptake at 4 h ([1]; 10 pmol, Liver uptake): 0.7 ± 0.3 %ID/g | tissue uptake at 24 h ([1]; 10 pmol, Liver uptake): 0.3 ± 0.1 %ID/g | tissue uptake at 1 h ([1]; 10 pmol, Lung uptake): 3 ± 1 %ID/g | tissue uptake at 4 h ([1]; 10 pmol, Lung uptake): 0.8 ± 0.2 %ID/g | tissue uptake at 24 h ([1]; 10 pmol, Lung uptake): 0.5 ± 0.1 %ID/g | tissue uptake at 1 h ([1]; 10 pmol, Muscle uptake): 0.4 %ID/g | tissue uptake at 4 h ([1]; 10 pmol, Muscle uptake): 0.1 ± 0.1 %ID/g | tissue uptake at 24 h ([1]; 10 pmol, Muscle uptake): 0.04 %ID/g | tissue uptake at 1 h ([1]; 10 pmol, Pancreas uptake): 5.6 ± 0.6 %ID/g | tissue uptake at 4 h ([1]; 10 pmol, Pancreas uptake): 0.4 ± 0.1 %ID/g | tissue uptake at 24 h ([1]; 10 pmol, Pancreas uptake): 0.2 %ID/g | tissue uptake at 1 h ([1]; 10 pmol, Spleen uptake): 0.9 ± 0.2 %ID/g | tissue uptake at 4 h ([1]; 10 pmol, Spleen uptake): 1.2 ± 0.2 %ID/g | tissue uptake at 24 h ([1]; 10 pmol, Spleen uptake): 0.9 ± 0.1 %ID/g | tissue uptake at 1 h ([1]; 10 pmol, Stomach uptake): 4.9 ± 1.6 %ID/g | tissue uptake at 4 h ([1]; 10 pmol, Stomach uptake): 0.9 ± 0.2 %ID/g | tissue uptake at 24 h ([1]; 10 pmol, Stomach uptake): 0.4 %ID/g | tissue uptake at 1 h ([1]; 10 pmol, Tumor uptake): 20.6 ± 3.7 %ID/g | tissue uptake at 4 h ([1]; 10 pmol, Tumor uptake): 19 ± 3.1 %ID/g | tissue uptake at 24 h ([1]; 10 pmol, Tumor uptake): 7.7 ± 2.5 %ID/g | tissue uptake at 1 h ([1]; 200 pmol, Adrenal uptake): 2.1 ± 1.2 %ID/g | tissue uptake at 1 h ([1]; 200 pmol, Blood uptake): 0.5 ± 0.1 %ID/g | tissue uptake at 1 h ([1]; 200 pmol, Bone uptake): 0.5 ± 0.3 %ID/g | tissue uptake at 1 h ([1]; 200 pmol, Heart uptake): 0.3 ± 1 %ID/g | tissue uptake at 1 h ([1]; 200 pmol, Intestine uptake): 0.5 ± 0.1 %ID/g | tissue uptake at 1 h ([1]; 200 pmol, Kidney uptake): 10.6 ± 1.6 %ID/g | tissue uptake at 1 h ([1]; 200 pmol, Liver uptake): 1.6 ± 0.3 %ID/g | tissue uptake at 1 h ([1]; 200 pmol, Lung uptake): 0.4 ± 0.2 %ID/g | tissue uptake at 1 h ([1]; 200 pmol, Muscle uptake): 0.2 %ID/g | tissue uptake at 1 h ([1]; 200 pmol, Pancreas uptake): 1.7 ± 0.3 %ID/g | tissue uptake at 1 h ([1]; 200 pmol, Spleen uptake): 0.7 ± 0.1 %ID/g | tissue uptake at 1 h ([1]; 200 pmol, Stomach uptake): 1.7 ± 0.7 %ID/g | tissue uptake at 1 h ([1]; 200 pmol, Tumor uptake): 16.4 ± 0.7 %ID/g | tissue uptake at 1 h ([1]; 1000 pmol, Adrenal uptake): 1.4 ± 0.6 %ID/g | tissue uptake at 1 h ([1]; 1000 pmol, Blood uptake): 0.4 ± 0.1 %ID/g | tissue uptake at 1 h ([1]; 1000 pmol, Bone uptake): 0.8 ± 0.4 %ID/g | tissue uptake at 1 h ([1]; 1000 pmol, Heart uptake): 0.3 ± 0.1 %ID/g | tissue uptake at 1 h ([1]; 1000 pmol, Intestine uptake): 0.3 ± 0.1 %ID/g | tissue uptake at 1 h ([1]; 1000 pmol, Kidney uptake): 7.9 ± 0.4 %ID/g | tissue uptake at 1 h ([1]; 1000 pmol, Liver uptake): 1 ± 0.2 %ID/g | tissue uptake at 1 h ([1]; 1000 pmol, Lung uptake): 0.3 ± 0.1 %ID/g | tissue uptake at 1 h ([1]; 1000 pmol, Muscle uptake): 0.3 ± 0.2 %ID/g | tissue uptake at 1 h ([1]; 1000 pmol, Pancreas uptake): 0.8 ± 0.2 %ID/g | tissue uptake at 1 h ([1]; 1000 pmol, Spleen uptake): 0.5 ± 0.1 %ID/g | tissue uptake at 1 h ([1]; 1000 pmol, Stomach uptake): 0.9 ± 0.2 %ID/g | tissue uptake at 1 h ([1]; 1000 pmol, Tumor uptake): 9.7 ± 2.4 %ID/g | tissue uptake at 1 h ([1]; 2000 pmol, Adrenal uptake): 1.9 ± 0.7 %ID/g | tissue uptake at 1 h ([1]; 2000 pmol, Blood uptake): 0.3 ± 0.1 %ID/g | tissue uptake at 1 h ([1]; 2000 pmol, Bone uptake): 0.2 %ID/g | tissue uptake at 1 h ([1]; 2000 pmol, Heart uptake): 0.2 ± 0.1 %ID/g | tissue uptake at 1 h ([1]; 2000 pmol, Intestine uptake): 0.4 ± 0.1 %ID/g | tissue uptake at 1 h ([1]; 2000 pmol, Kidney uptake): 8.1 ± 0.7 %ID/g | tissue uptake at 1 h ([1]; 2000 pmol, Liver uptake): 0.8 ± 0.1 %ID/g | tissue uptake at 1 h ([1]; 2000 pmol, Lung uptake): 0.3 %ID/g | tissue uptake at 1 h ([1]; 2000 pmol, Muscle uptake): 0.2 %ID/g | tissue uptake at 1 h ([1]; 2000 pmol, Pancreas uptake): 0.6 ± 0.1 %ID/g | tissue uptake at 1 h ([1]; 2000 pmol, Spleen uptake): 0.6 ± 0.1 %ID/g | tissue uptake at 1 h ([1]; 2000 pmol, Stomach uptake): 0.8 ± 0.1 %ID/g | tissue uptake at 1 h ([1]; 2000 pmol, Tumor uptake): 9.2 ± 0.4 %ID/g

C[C@@H](O)[C@H](NC(=O)[C@@H]1CSSC[C@H](NC(=O)[C@@H](Cc2ccccc2)NC(=O)CN2CCN(CC(=O)O)CCN(CC(=O)O)CCN(CC(=O)O)CC2)C(=O)N[C@@H](Cc2ccc(O)cc2)C(=O)N[C@H](Cc2c[nH]c3ccccc23)C(=O)N[C@@H](CCCCN)C(=O)N[C@@H]([C@@H](C)O)C(=O)N1)C(=O)O [^64Cu-DOTA-TATE, [^64Cu-DOTA, Tyr^3, Thr^8]octreotide, metal not drawn, reference compound]
tissue uptake at 1 h ([1]; 10 pmol, Adrenal uptake): 4.7 ± 1.5 %ID/g | tissue uptake at 24 h ([1]; 10 pmol, Adrenal uptake): 0.7 ± 0.3 %ID/g | tissue uptake at 1 h ([1]; 10 pmol, Blood uptake): 0.7 ± 0.2 %ID/g | tissue uptake at 4 h ([1]; 10 pmol, Blood uptake): 0.6 ± 0.1 %ID/g | tissue uptake at 24 h ([1]; 10 pmol, Blood uptake): 0.5 ± 0.05 %ID/g | tissue uptake at 1 h ([1]; 10 pmol, Bone uptake): 1.6 ± 0.5 %ID/g | tissue uptake at 24 h ([1]; 10 pmol, Bone uptake): 0.8 ± 0.1 %ID/g | tissue uptake at 1 h ([1]; 10 pmol, Heart uptake): 1.1 ± 0.1 %ID/g | tissue uptake at 4 h ([1]; 10 pmol, Heart uptake): 1.2 ± 0.3 %ID/g | tissue uptake at 24 h ([1]; 10 pmol, Heart uptake): 1.1 ± 0.2 %ID/g | tissue uptake at 24 h ([1]; 10 pmol, Intestine uptake): 2 ± 0.3 %ID/g | tissue uptake at 1 h ([1]; 10 pmol, Kidney uptake): 4.8 ± 0.5 %ID/g | tissue uptake at 4 h ([1]; 10 pmol, Kidney uptake): 3 ± 0.6 %ID/g | tissue uptake at 1 h ([1]; 10 pmol, Liver uptake): 6.1 ± 1.2 %ID/g | tissue uptake at 4 h ([1]; 10 pmol, Liver uptake): 5.2 ± 1.6 %ID/g | tissue uptake at 24 h ([1]; 10 pmol, Liver uptake): 4.6 ± 0.6 %ID/g | tissue uptake at 1 h ([1]; 10 pmol, Lung uptake): 9.8 ± 2.6 %ID/g | tissue uptake at 4 h ([1]; 10 pmol, Lung uptake): 5.4 ± 1.4 %ID/g | tissue uptake at 1 h ([1]; 10 pmol, Muscle uptake): 0.3 ± 0.1 %ID/g | tissue uptake at 4 h ([1]; 10 pmol, Muscle uptake): 0.2 ± 0.03 %ID/g | tissue uptake at 24 h ([1]; 10 pmol, Muscle uptake): 0.3 ± 0.1 %ID/g | tissue uptake at 1 h ([1]; 10 pmol, Pancreas uptake): 24.6 ± 2.4 %ID/g | tissue uptake at 4 h ([1]; 10 pmol, Pancreas uptake): 4.4 ± 1 %ID/g | tissue uptake at 24 h ([1]; 10 pmol, Pancreas uptake): 0.95 ± 0.1 %ID/g | tissue uptake at 4 h ([1]; 10 pmol, Spleen uptake): 1.1 ± 0.4 %ID/g | tissue uptake at 24 h ([1]; 10 pmol, Spleen uptake): 1.2 ± 0.1 %ID/g | tissue uptake at 1 h ([1]; 10 pmol, Stomach uptake): 16.1 ± 1.7 %ID/g | tissue uptake at 4 h ([1]; 10 pmol, Stomach uptake): 10.6 ± 1.6 %ID/g | tissue uptake at 24 h ([1]; 10 pmol, Stomach uptake): 3.1 ± 0.3 %ID/g | tissue uptake at 1 h ([1]; 10 pmol, Tumor uptake): 20.3 ± 2.5 %ID/g | tissue uptake at 4 h ([1]; 10 pmol, Tumor uptake): 14.9 ± 1 %ID/g

From PMC5906006 (PLoS ONE, 2018)
